Assay results reported in IntAct's records for PubMed 25910212.

B1: Alpha-crystallin B chain (Homo sapiens), P02511 (parent)
chain: MDIAIHHPWIRRPFFPFHSPSRLFDQFFGEHLLESDLFPTSTSLSPFYLRPPSFLRAPSWFDTGLSEMRLEKDRFSVNLDVKHFSPEELKVKVLGDVIEVHGKHEERQDEHGFISREFHRKYRIPADVDPLTITSSLSSDGVLTVNGPRKQVSGPERTIPITREEKPAVTAAPKK
partner: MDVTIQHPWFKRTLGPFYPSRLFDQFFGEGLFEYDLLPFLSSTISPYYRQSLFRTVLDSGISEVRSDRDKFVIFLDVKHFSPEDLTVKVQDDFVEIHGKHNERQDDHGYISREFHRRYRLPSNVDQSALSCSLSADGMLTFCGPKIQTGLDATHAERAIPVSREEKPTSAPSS
B2: U4/U6 small nuclear ribonucleoprotein Prp31 (Homo sapiens), Q8WWY3 (parent)
chain: MSLADELLADLEEAAEEEEGGSYGEEEEEPAIEDVQEETQLDLSGDSVKTIAKLWDSKMFAEIMMKIEEYISKQAKASEVMGPVEAAPEYRVIVDANNLTVEIENELNIIHKFIRDKYSKRFPELESLVPNALDYIRTVKELGNSLDKCKNNENLQQILTNATIMVVSVTASTTQGQQLSEEELERLEEACDMALELNASKHRIYEYVESRMSFIAPNLSIIIGASTAAKIMGVAGGLTNLSKMPACNIMLLGAQRKTLSGFSSTSVLPHTGYIYHSDIVQSLPPDLRRKAARLVAAKCTLAARVDSFHESTEGKVGYELKDEIERKFDKWQEPPPVKQVKPLPAPLDGQRKKRGGRRYRKMKERLGLTEIRKQANRMSFGEIEEDAYQEDLGFSLGHLGKSGSGRVRQTQVNEATKARISKTLQRTLQKQSVVYGGKSTIRDRSSGTASSVAFTPLQGLEIVNPQAAEKKVAEANQKYFSSMAEFLKVKGEKSGLMST
partner: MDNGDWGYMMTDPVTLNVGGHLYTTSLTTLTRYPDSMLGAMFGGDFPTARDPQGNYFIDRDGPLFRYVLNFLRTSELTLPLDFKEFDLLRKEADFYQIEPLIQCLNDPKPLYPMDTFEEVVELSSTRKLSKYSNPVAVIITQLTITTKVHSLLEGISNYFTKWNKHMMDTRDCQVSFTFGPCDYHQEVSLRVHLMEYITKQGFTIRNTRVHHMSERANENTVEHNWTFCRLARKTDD
B3: Inactive peptidyl-prolyl cis-trans isomerase FKBP6 (Homo sapiens), O75344 (parent)
chain: MGGSALNQGVLEGDDAPGQSLYERLSQRMLDISGDRGVLKDVIREGAGDLVAPDASVLVKYSGYLEHMDRPFDSNYFRKTPRLMKLGEDITLWGMELGLLSMRRGELARFLFKPNYAYGTLGCPPLIPPNTTVLFEIELLDFLDCAESDKFCALSAEQQDQFPLQKVLKVAATEREFGNYLFRQNRFYDAKVRYKRALLLLRRRSAPPEEQHLVEAAKLPVLLNLSFTYLKLDRPTIALCYGEQALIIDQKNAKALFRCGQACLLLTEYQKARDFLVRAQKEQPFNHDINNELKKLASCYRDYVDKEKEMWHRMFAPCGDGSTAGES
partner: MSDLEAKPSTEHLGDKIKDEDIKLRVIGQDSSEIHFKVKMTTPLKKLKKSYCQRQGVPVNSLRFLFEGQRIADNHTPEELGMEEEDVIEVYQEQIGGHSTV
B4: Emerin (Homo sapiens), P50402 (parent)
chain: MDNYADLSDTELTTLLRRYNIPHGPVVGSTRRLYEKKIFEYETQRRRLSPPSSSAASSYSFSDLNSTRGDADMYDLPKKEDALLYQSKGYNDDYYEESYFTTRTYGEPESAGPSRAVRQSVTSFPDADAFHHQVHDDDLLSSSEEECKDRERPMYGRDSAYQSITHYRPVSASRSSLDLSYYPTSSSTSFMSSSSSSSSWLTRRAIRPENRAPGAGLGQDRQVPLWGQLLLFLVFVIVLFFIYHFMQAEEGNPF
partner: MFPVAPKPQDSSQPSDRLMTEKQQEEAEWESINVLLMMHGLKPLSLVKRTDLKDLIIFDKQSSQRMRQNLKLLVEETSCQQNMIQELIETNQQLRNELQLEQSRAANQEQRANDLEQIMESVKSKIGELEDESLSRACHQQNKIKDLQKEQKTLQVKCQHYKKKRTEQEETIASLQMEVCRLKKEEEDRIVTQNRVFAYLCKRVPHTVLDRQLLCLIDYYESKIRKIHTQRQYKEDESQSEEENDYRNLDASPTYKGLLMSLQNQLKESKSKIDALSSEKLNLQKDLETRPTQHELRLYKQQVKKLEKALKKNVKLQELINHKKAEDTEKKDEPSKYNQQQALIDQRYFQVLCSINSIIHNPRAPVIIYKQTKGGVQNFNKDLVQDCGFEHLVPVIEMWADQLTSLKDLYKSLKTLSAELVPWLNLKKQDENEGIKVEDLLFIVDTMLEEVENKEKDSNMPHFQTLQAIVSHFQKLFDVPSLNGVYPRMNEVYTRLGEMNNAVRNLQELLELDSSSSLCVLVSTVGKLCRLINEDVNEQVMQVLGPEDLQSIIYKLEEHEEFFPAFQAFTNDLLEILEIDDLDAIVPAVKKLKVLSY
B5: Keratin, type II cytoskeletal 6A (Homo sapiens), P02538 (parent)
chain: MASTSTTIRSHSSSRRGFSANSARLPGVSRSGFSSVSVSRSRGSGGLGGACGGAGFGSRSLYGLGGSKRISIGGGSCAISGGYGSRAGGSYGFGGAGSGFGFGGGAGIGFGLGGGAGLAGGFGGPGFPVCPPGGIQEVTVNQSLLTPLNLQIDPTIQRVRAEEREQIKTLNNKFASFIDKVRFLEQQNKVLETKWTLLQEQGTKTVRQNLEPLFEQYINNLRRQLDSIVGERGRLDSELRGMQDLVEDFKNKYEDEINKRTAAENEFVTLKKDVDAAYMNKVELQAKADTLTDEINFLRALYDAELSQMQTHISDTSVVLSMDNNRNLDLDSIIAEVKAQYEEIAQRSRAEAESWYQTKYEELQVTAGRHGDDLRNTKQEIAEINRMIQRLRSEIDHVKKQCANLQAAIADAEQRGEMALKDAKNKLEGLEDALQKAKQDLARLLKEYQELMNVKLALDVEIATYRKLLEGEECRLNGEGVGQVNISVVQSTVSSGYGGASGVGSGLGLGGGSSYSYGSGLGVGGGFSSSSGRAIGGGLSSVGGGSSTIKYTTTSSSSRKSYKH
partner: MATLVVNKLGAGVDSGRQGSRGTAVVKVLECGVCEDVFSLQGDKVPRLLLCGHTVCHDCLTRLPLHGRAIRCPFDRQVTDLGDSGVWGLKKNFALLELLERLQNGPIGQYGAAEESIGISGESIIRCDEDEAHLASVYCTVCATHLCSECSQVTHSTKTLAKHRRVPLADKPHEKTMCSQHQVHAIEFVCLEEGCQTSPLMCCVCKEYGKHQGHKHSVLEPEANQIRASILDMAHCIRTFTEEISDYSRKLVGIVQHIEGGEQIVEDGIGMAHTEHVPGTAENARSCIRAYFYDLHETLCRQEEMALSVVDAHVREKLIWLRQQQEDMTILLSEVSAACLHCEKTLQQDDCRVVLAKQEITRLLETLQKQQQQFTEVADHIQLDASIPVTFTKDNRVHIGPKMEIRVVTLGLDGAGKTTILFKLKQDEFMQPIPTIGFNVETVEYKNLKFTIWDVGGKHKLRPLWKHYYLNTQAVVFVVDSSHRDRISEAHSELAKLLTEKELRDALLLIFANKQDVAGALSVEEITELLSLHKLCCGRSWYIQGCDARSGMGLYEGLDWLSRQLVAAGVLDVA
B6: U4/U6 small nuclear ribonucleoprotein Prp31 (Homo sapiens), Q8WWY3 (parent)
chain: B2 chain
partner: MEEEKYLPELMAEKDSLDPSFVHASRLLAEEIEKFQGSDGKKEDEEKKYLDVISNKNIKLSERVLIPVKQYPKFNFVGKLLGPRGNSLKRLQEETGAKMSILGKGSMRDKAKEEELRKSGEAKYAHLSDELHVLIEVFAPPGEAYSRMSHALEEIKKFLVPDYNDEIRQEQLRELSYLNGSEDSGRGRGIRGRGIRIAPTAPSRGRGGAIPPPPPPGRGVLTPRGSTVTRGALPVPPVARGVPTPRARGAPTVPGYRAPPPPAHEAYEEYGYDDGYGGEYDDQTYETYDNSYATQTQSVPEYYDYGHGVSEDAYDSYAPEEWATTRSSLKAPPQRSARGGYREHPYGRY

Variants of: B1
Settings: with cryaa_human CRYAA

| effect of a mutation on the interaction | Variant |
| --- | --- |
| with no effect | R120G |
| with no effect | P20S |
| with no effect | R56W |
| with no effect | D140N |

Variants of: B2
Settings: with kctd6_human KCTD6, Q8NC69

| effect of a mutation on the interaction | Variant |
| --- | --- |
| with no effect | L107V |

Variants of: B3
Settings: with sumo5_human SUMO1P1, G2XKQ0

| effect of a mutation on the interaction | Variant |
| --- | --- |
| disrupting interaction strength | F72L |
| with no effect | R202H |

Variants of: B4
Settings: with cep70_human CEP70, Q8NHQ1

| effect of a mutation on the interaction | Variant |
| --- | --- |
| with no effect | S54F |
| with no effect | P183H |
| with no effect | P183T |
| with no effect | D72V |

Variants of: B5
Settings: with tri23_human TRIM23, P36406

| effect of a mutation on the interaction | Variant |
| --- | --- |
| with no effect | F174V |
| disrupting interaction strength | A463P |
| with no effect | N21S |
| disrupting interaction strength | N171K |
| disrupting interaction strength | I462S |
| with no effect | V523F |
| with no effect | F249L |
| with no effect | T552S |

Variants of: B6
Settings: with khdr2_human KHDRBS2, Q5VWX1

| effect of a mutation on the interaction | Variant |
| --- | --- |
| with no effect | L107V |
